For experiment [1], the target named is T1, Fe65 N-term-WW-PID1-PID2 1-662 (human, UniProt O00213-2 1-662).
T1 sequence (looked up): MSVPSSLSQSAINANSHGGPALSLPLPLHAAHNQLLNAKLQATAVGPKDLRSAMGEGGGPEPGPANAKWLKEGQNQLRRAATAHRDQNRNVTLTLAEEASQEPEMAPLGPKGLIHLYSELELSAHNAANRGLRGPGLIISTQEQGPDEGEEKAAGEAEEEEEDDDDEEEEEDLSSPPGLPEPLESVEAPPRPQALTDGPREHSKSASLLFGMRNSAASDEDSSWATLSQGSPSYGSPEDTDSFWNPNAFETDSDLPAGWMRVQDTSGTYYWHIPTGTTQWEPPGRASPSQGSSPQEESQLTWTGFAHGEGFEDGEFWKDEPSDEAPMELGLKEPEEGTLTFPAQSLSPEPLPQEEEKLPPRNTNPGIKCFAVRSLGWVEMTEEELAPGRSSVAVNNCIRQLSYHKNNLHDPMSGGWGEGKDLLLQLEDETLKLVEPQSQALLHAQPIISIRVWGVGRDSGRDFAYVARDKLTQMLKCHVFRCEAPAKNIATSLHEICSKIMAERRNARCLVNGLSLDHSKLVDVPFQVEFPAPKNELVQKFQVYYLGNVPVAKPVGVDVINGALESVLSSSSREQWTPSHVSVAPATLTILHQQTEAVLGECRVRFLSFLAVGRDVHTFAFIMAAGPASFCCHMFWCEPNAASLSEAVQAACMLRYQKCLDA
Put plainly: SPR. For orientation: In SPR one partner is held on a chip, and binding of the other changes the refractive index at the surface.

In the next experiment the target is T2, Fe65 WW-PID1 236-512 (human, UniProt O00213-2 236-512).
T2 sequence (looked up): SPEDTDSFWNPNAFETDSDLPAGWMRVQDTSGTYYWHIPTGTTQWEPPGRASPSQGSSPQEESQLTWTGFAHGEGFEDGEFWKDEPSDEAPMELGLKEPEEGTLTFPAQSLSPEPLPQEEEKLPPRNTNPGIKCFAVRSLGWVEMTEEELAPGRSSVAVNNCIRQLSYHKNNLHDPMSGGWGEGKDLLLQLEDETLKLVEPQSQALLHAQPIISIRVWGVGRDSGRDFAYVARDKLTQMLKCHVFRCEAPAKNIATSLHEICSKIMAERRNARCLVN
Put plainly: fluorescence polarisation. In general terms: In fluorescence polarisation assays a small probe gives low polarisation when free and higher when bound to something large.

Experiment [2] deals with T3, Fe65 WW-PID1-PID2 236-662 (human, UniProt O00213-2 236-662).
T3 sequence (looked up): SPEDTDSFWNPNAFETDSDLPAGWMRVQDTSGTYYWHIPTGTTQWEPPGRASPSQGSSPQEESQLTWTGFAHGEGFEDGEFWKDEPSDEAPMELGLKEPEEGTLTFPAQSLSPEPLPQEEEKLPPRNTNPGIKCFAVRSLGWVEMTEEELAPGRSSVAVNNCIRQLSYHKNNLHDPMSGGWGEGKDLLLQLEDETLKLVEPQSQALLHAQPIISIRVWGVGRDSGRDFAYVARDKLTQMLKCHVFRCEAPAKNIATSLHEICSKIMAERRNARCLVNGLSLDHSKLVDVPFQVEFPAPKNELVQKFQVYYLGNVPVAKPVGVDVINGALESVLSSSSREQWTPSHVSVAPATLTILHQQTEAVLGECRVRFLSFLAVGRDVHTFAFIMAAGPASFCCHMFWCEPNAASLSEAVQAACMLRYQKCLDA
Put plainly: fluorescence polarisation.

Where no end group is shown, it is not given here. [ ]: non-standard residue; d: D form. pY = N[C@@H](Cc1ccc(OP(=O)(O)O)cc1)C(=O)O

B1: APP Intracellular Domain (AICD, residues 649-695), biotinylated at the N-terminal cysteine (domain or fragment)
chain: GSKLCKKKQYTSIHHGVVEVDAAVTPEERHLSKMQQNGYENPTYKFFEQMQN
modifications: biotin (biotin-maleimide) on the N-terminal cysteine
A word on the Kd: it is the equilibrium constant for the complex coming apart. Consider B1, for which, in experiment [1], the affinity, expressed as Kd, was 2.5 ± 0.35 µM.

B2: LRP4488 phosphorylated at Y4507 (pYLRP4488) labeled with Oregon Green 488 (domain or fragment, human)
chain: C(Oregon Green 488 maleimide)LDADFALDPDKPTNFTNPV[pY]ATLYMGGHGSRHSLASTDEKRELLGRGPEDEIGDPLA
On to B2, for which the Kd was found to be 66.7 µM with Fe65 WW-PID1 236-512 and 48.3 µM in experiment [2].

The record behind these values is publication PMC3139566 (Biochemistry, 2011).
